The record followed here is article PMC10960814.

Assay [1] has as its target full-length human insulin receptor, B isoform (hIR-B), with a kinase-dead mutation, construct for structural studies (human). The experiment in a line: cryo-EM structure; purified hIR-A or hIR-B dimer fraction (20 mM HEPES-Na pH 7.5, 400 mM NaCl, 0.03% DDM) with refolded IGF2 added at a 2:8 (m/m) ratio, 2 h; saturated IGF2.
Assay [2] concerns the target full-length human IR-A, Myc-tagged (pCS2-IR-A-Myc) (human) (UniProt P06213). The experiment in a line: competition-binding assay (fluorescent insulin on bead-bound receptor); IR-A-Myc or IR-B-Myc held on anti-c-Myc magnetic beads; 1 nM Alexa Fluor labeled human insulin and the indicated amount of homemade IGF2, 4 °C, 14 h; 20 mM Hepes pH 7.4, 200 mM NaCl, 0.03% DDM, 0.003% CHS, 100 nM BSA; fluorescence of the eluate.

Assay [3] concerns the target full-length human IR-B, Myc-tagged (pCS2-IR-B-Myc) (human) (UniProt P06213). The assay is described as above.

On to “insulin-like growth factor 2 (IGF2), wild type, homemade (from UniProt P01344 25-91) (ligand)”, for which, in assay [1], the stoichiometry N (IGF2 per IR dimer (class 1, symmetric)) was 4 and the stoichiometry N (IGF2 per IR dimer (class 2, asymmetric)) stood at 3. For the same substance, the stoichiometry N in assay [1] (scale: IGF2 per IR dimer) amounted to 2.

Turning to IGF2 R30A mutant (ligand), the fold of binding affinity against IGF2 WT in assay [2] and in assay [3] was 3 fold each time.
